The assay concerns the target T1, human β-globin polypeptide (product of the human β-globin transgene) (human, UniProt P68871 2-147).
T1 construct: Two copies stand in each hemoglobin tetramer (α2β2); also called hβ
The experiment in a line: nondenaturing isoelectric focusing of transgenic mouse hemolysate; band excised and its chains identified on a denaturing cellulose acetate strip. From the text: Human α and β-globin mRNA detected in lung is the result of incomplete perfusion. Mouse α and β-globin mRNA are also observed in this non-erythroid tissue. (B) Nondenaturing, isoelectric focusing of transgenic mouse hemolysates. Hemolysates of control mouse (lane 1) human (lane 4) and transgenic mouse (lanes 2 and 3) blood were run on a native agarose isoelectric focusing gel and photographed without staining. (C) Denaturing cellulose acetate strip electrophoresis of transgenic mouse hemogobins. Hemoglobins were denatured in alkaline-urea buffer, electrophoresed on cellulose acetate strips, and stained with imido black.
To determine whether complete human hemoglobins were formed, we separated hemolysates of the blood of animals from two different transgenic lines by non-denaturing ioslectric focusing (IEF) (FIG. 14B). The first lane is a mouse control and the last lane is a normal human sample. The predominant band in each of the controls is the major adult hemoglobin, mouse α_2β_2 or human α_2β_2, respectively.

T1 sequence (P68871 2-147 limits assumed): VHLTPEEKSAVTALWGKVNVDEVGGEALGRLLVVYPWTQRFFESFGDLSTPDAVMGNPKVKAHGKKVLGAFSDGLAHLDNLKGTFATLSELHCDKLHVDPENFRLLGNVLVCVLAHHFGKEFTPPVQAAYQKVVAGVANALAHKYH

B1: mouse α-globin polypeptide (endogenous) (other)
chain: not shown
notes: Endogenous chain in the red blood cells of the transgenic mice; also called mα
For the molecule B1, the binding result was “binds”.

B2: human α-globin polypeptide (product of the human α1-globin transgene) (other)
chain: not shown
notes: Two copies stand in each hemoglobin tetramer (α2β2); also called hα
Regarding B2, the binding result is listed as “binds”.

The record behind these values is patent US6613957 (UAB RESEARCH FOUNDATION, dated 2003).
